# According to patent publication US20170306038A1, “COMPOSITIONS AND METHODS OF USE FOR AUGMENTED IMMUNE RESPONSE AND CANCER THERAPY” (priority 2014, published 2017):
# T1: human GITR (Homo sapiens, UniProt Q9Y5U5)
# T1 construct: coated with rat, mouse, human or cyno GITR extracellular domain (ECD) at 50 ng per well
# T1 sequence (Q9Y5U5 26-162 limits assumed): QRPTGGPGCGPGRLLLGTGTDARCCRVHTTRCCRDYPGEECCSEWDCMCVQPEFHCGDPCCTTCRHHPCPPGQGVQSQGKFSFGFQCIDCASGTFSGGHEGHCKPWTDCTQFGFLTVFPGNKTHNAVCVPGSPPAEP
# T2: human GITR (Homo sapiens, UniProt Q9Y5U5)
# T2 construct: expressed in transfected cells; host or cells: HEK-293 (293) cells
# T2 sequence (Q9Y5U5 26-241): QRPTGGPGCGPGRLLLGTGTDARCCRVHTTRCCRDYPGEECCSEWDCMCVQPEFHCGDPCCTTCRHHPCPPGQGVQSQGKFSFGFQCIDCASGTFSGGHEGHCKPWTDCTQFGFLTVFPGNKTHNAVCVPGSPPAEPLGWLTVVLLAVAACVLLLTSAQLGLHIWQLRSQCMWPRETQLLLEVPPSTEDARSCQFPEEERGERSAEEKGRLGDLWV
# B1: MAB1: murine monoclonal GITR agonist antibody (parental); VH SEQ ID NO:61, VL SEQ ID NO:59 (antibody, V domains shown)
# VH: QVQLKESGPGLVAPSQSLSITCTVSGFSLRSYGVDWVRQPPGKGLEWLGVIWGGGGTNYNSALMAKLSISKDKSKSQVFLKMNSLQTDDTAMYYCAKHAYGHDGGFAMDYWGQGTSVTVSS
# VL: NIVMTQSPKSMSMSVGERVTLSCKASENVDTFVSWYQQKPDHSPKLLIYGASNRYTGVPDRFTGSGSATDFTLTISSVQAEDLADYHCGQSYSYPFTFGSGTKLEIK
# B2: GITRL: recombinant human GITR ligand (GITR-L) (protein)
# chain: ETAKEPCMAKFGPLPSKWQMASSEPPCVNKVSDWKLEILQNGLYLIYGQVAPNANYNDVAPFEVRLYKNKDMIQTLTNKSKIQNVGGTYELHVGDTIDLIFNSEHQVLKNNTYWGIILLANPQFIS
# Assays:
# cynomolgus GITR = test: ELISA binding to GITR extracellular domain, cyno
# Description: (§1) Binding of the MABs to GITR from various species, various alanine mutant constructs or GITR extracellular domain—was assessed using a 384-well plate was coated with rat, mouse, human or cyno GITR extracellular domain (ECD) at 50 ng per well and incubated overnight at 4° C. The plate was blocked with a solution of 1% BSA in PBS for one hour at room temperature and then rinsed three times with PBST. The MAB was then diluted to 0.5 μg/mL or 1 μg/mL in PBS and 20 μL was added to each well. The plate was incubated for 1 hour at room temperature and then washed three times with PBST. Anti-human kappa antibody (Sigma #A7164), anti-human gamma antibody (Jackson Immunoresearch 109-036-098), goat anti-mouse antibody (Jackson ImmunoResearch 115-035-071) conjugated to HRP was diluted 1:5000 in Blocking Buffer (25 μL) and added to each well, or a hrp conjugated HIS antibody (QIAGEN 1014992) diluted 1:1000 in Blocking Buffer was added. The plate was incubated for 1 hour at room temperature, and then washed six times with PBST. 25 μL of SureBlue TMB (KPL 52-00-02) substrate was added to each well and the plate was incubated for about 10 min at room temperature. Plates were read at 650 nm in a spectrophotometer.
# human GITR [1] = target: T1, human GITR; test: ELISA binding to GITR extracellular domain, human
# Description: as §1
# rodent GITR = test: ELISA binding to GITR extracellular domain, rodent; set-up: species or system rat, mouse
# Description: as §1
# human GITR [2] = target: T2, human GITR; test: NFκB-Luciferase reporter gene assay, 293 cells with human GITR; assay type: cell-based; conditions: antibodies crosslinked
# Description: To generate the 293-hGITR-NFκB reporter gene cells line, 293 cells were stably transfected with an NFκB-Luciferase reporter gene and human GITR (or cyno GITR). Activation of the GITR signaling pathway in these cells was determined by measuring the levels of luciferase induced within the cells after a 24 hour incubation with GITR-L or agonistic antibody. To assess the effects of cross-linking Abs, they were incubated with an excess of a F(ab′)2 goat anti-human Fcγ fragment specific antibody or protein A before using in the reporter gene assay.
# Functional activity of MABs were tested in an NFkB reporter gene assay for agonist activity. MAB was diluted to 6 μg/mL in PBS and incubated for 30 minutes at room temperature in the presence/absence of a 3 fold excess of F(ab′)2 fragment goat anti-human Fcγ specific crosslinker. Alternatively, MAB was diluted to 6 μg/mL in PBS and incubated for 30 minutes at room temperature in the presence/absence of a 2 fold excess of Protein A. 10 μL of incubated MAB was then added to a 384 well white clear bottomed assay plate. A HEK-293 cell line stably transfected with hGITR and a NFκB reporter gene was diluted to 5×10^5 cells/mL and 20 μL of the cell suspension was added to each well. […] 30 μL of Cell Bright Glo was added to each well and the plate was read for luminescence on the Acquest.
Molecule,binding to cynomolgus GITR in ELISA (cynomolgus GITR),binding to human GITR in ELISA (human GITR [1]),binding to rodent GITR in ELISA (rodent GITR),NFκB activity / intracellular signaling (human GITR [2])
B1,binds,binds,not rodent GITR,
B2,,,,activates intracellular signaling
